Measured values from patent US20260001928A1 (CORTERIA PHARMACEUTICALS, priority 2022, published 2026).
*1 amine or outer side, *2 acyl side, *3 side chain or, on linkers, in order; H or OH if unused. Where no end group is shown, it is not given here. Side-chain parts run from the residue outwards. [ ]: non-standard residue; d: D form. The star is where a group is joined. C18 diacid = O=C(O)CCCCCCCCCCCCCCCCC(=O)*; γGlu = O=C(O)[C@H](CCC(=O)[*:2])N[*:1]; NMeI = CC[C@H](C)[C@H](NC)C(=O)O; Nva = CCC[C@H](N)C(=O)O; Abu = CC[C@H](N)C(=O)O; Pentanoyl = CCCCC(=O)*; AEEA = NCCOCCOCC(=O)O; Aib = CC(C)(N)C(=O)O

T1: CRF1R receptor (UniProt P34998 24-415, limits assumed)
T1 sequence (looked up): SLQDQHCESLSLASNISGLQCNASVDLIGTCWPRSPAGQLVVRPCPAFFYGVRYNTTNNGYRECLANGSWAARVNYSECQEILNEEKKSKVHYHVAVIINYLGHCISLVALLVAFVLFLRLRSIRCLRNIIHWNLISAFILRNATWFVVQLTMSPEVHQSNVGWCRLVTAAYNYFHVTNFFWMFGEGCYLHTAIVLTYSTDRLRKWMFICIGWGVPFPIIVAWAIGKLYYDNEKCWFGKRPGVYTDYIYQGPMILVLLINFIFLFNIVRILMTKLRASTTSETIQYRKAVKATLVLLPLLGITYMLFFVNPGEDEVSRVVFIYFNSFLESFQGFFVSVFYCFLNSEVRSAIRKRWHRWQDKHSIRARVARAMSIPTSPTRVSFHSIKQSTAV


What was measured:
[1] = target: human corticotropin-releasing factor 2a (CRF2a receptor) (human), Q13324; experiment: cell-based or functional assay
CRF1R receptor = target: T1, CRF1R receptor; experiment: cell-based or functional assay

Chain of human corticotropin-releasing factor 2a (CRF2a receptor) (human), Q13324 (Q13324 20-411): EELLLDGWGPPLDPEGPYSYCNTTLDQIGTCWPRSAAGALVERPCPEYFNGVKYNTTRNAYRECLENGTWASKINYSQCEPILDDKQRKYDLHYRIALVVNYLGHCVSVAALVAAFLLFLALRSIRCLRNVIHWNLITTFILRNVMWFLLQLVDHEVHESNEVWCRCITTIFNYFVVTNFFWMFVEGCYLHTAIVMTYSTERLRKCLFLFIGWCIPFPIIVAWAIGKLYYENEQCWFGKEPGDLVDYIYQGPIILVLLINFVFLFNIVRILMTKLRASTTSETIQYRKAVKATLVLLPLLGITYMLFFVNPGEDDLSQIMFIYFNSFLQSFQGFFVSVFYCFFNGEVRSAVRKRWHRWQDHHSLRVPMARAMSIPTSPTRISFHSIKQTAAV

| Binder | EC50 [nM] (cAMP) [1] | Emax (% I) (CRF1R receptor) | EC50 (CRF1R receptor) |
| --- | --- | --- | --- |
| Ac-IVLSLD[dV]PIKLK([AEEA-AEEA-γGlu-γGlu-C18 diacid])QILLKQERQKKQREQAEKN[Aib]QILEQV-NH2 (SMILES CC[C@H](C)[C@H](NC(C)=O)C(=O)N[C@H](C(=O)N[C@@H](CC(C)C)C(=O)N[C@@H](CO)C(=O)N[C@@H](CC(C)C)C(=O)N[C@@H](CC(=O)O)C(=O)N[C@@H](C(=O)N1CCC[C@H]1C(=O)N[C@H](C(=O)N[C@@H](CCCCN)C(=O)N[C@@H](CC(C)C)C(=O)N[C@@H](CCCCNC(=O)COCCOCCNC(=O)COCCOCCNC(=O)CC[C@H](NC(=O)CC[C@H](NC(=O)CCCCCCCCCCCCCCCCC(=O)O)C(=O)O)C(=O)O)C(=O)N[C@@H](CCC(N)=O)C(=O)N[C@H](C(=O)N[C@@H](CC(C)C)C(=O)N[C@@H](CC(C)C)C(=O)N[C@@H](CCCCN)C(=O)N[C@@H](CCC(N)=O)C(=O)N[C@@H](CCC(=O)O)C(=O)N[C@@H](CCCNC(=N)N)C(=O)N[C@@H](CCC(N)=O)C(=O)N[C@@H](CCCCN)C(=O)N[C@@H](CCCCN)C(=O)N[C@@H](CCC(N)=O)C(=O)N[C@@H](CCCNC(=N)N)C(=O)N[C@@H](CCC(=O)O)C(=O)N[C@@H](CCC(N)=O)C(=O)N[C@@H](C)C(=O)N[C@@H](CCC(=O)O)C(=O)N[C@@H](CCCCN)C(=O)N[C@@H](CC(N)=O)C(=O)NC(C)(C)C(=O)N[C@@H](CCC(N)=O)C(=O)N[C@H](C(=O)N[C@@H](CC(C)C)C(=O)N[C@@H](CCC(=O)O)C(=O)N[C@@H](CCC(N)=O)C(=O)N[C@H](C(N)=O)C(C)C)[C@@H](C)CC)[C@@H](C)CC)[C@@H](C)CC)C(C)C)C(C)C) [SEQ ID NO 30] | 0.29 nM | 15% | > 250 nM |
| Ac-IVLSLD[dV]PIKLK([AEEA-AEEA-γGlu-C18 diacid])KILLEQEKQKKQREQAETN[Nva]QILAQV-NH2 (SMILES CCC[C@H](NC(=O)[C@H](CC(N)=O)NC(=O)[C@@H](NC(=O)[C@H](CCC(=O)O)NC(=O)[C@H](C)NC(=O)[C@H](CCC(N)=O)NC(=O)[C@H](CCC(=O)O)NC(=O)[C@H](CCCNC(=N)N)NC(=O)[C@H](CCC(N)=O)NC(=O)[C@H](CCCCN)NC(=O)[C@H](CCCCN)NC(=O)[C@H](CCC(N)=O)NC(=O)[C@H](CCCCN)NC(=O)[C@H](CCC(=O)O)NC(=O)[C@H](CCC(N)=O)NC(=O)[C@H](CCC(=O)O)NC(=O)[C@H](CC(C)C)NC(=O)[C@H](CC(C)C)NC(=O)[C@@H](NC(=O)[C@H](CCCCN)NC(=O)[C@H](CCCCNC(=O)COCCOCCNC(=O)COCCOCCNC(=O)CC[C@H](NC(=O)CCCCCCCCCCCCCCCCC(=O)O)C(=O)O)NC(=O)[C@H](CC(C)C)NC(=O)[C@H](CCCCN)NC(=O)[C@@H](NC(=O)[C@@H]1CCCN1C(=O)[C@H](NC(=O)[C@H](CC(=O)O)NC(=O)[C@H](CC(C)C)NC(=O)[C@H](CO)NC(=O)[C@H](CC(C)C)NC(=O)[C@@H](NC(=O)[C@@H](NC(C)=O)[C@@H](C)CC)C(C)C)C(C)C)[C@@H](C)CC)[C@@H](C)CC)[C@@H](C)O)C(=O)N[C@@H](CCC(N)=O)C(=O)N[C@H](C(=O)N[C@@H](CC(C)C)C(=O)N[C@@H](C)C(=O)N[C@@H](CCC(N)=O)C(=O)N[C@H](C(N)=O)C(C)C)[C@@H](C)CC) [SEQ ID NO 105] | 0.87 nM | 10% | – |
| Ac-IVLSLD[dV]PIKLK([AEEA-AEEA-γGlu-C18 diacid])KILLEQEKQKKQREQAETNAQILAQV-NH2 (SMILES CC[C@H](C)[C@H](NC(C)=O)C(=O)N[C@H](C(=O)N[C@@H](CC(C)C)C(=O)N[C@@H](CO)C(=O)N[C@@H](CC(C)C)C(=O)N[C@@H](CC(=O)O)C(=O)N[C@@H](C(=O)N1CCC[C@H]1C(=O)N[C@H](C(=O)N[C@@H](CCCCN)C(=O)N[C@@H](CC(C)C)C(=O)N[C@@H](CCCCNC(=O)COCCOCCNC(=O)COCCOCCNC(=O)CC[C@H](NC(=O)CCCCCCCCCCCCCCCCC(=O)O)C(=O)O)C(=O)N[C@@H](CCCCN)C(=O)N[C@H](C(=O)N[C@@H](CC(C)C)C(=O)N[C@@H](CC(C)C)C(=O)N[C@@H](CCC(=O)O)C(=O)N[C@@H](CCC(N)=O)C(=O)N[C@@H](CCC(=O)O)C(=O)N[C@@H](CCCCN)C(=O)N[C@@H](CCC(N)=O)C(=O)N[C@@H](CCCCN)C(=O)N[C@@H](CCCCN)C(=O)N[C@@H](CCC(N)=O)C(=O)N[C@@H](CCCNC(=N)N)C(=O)N[C@@H](CCC(=O)O)C(=O)N[C@@H](CCC(N)=O)C(=O)N[C@@H](C)C(=O)N[C@@H](CCC(=O)O)C(=O)N[C@H](C(=O)N[C@@H](CC(N)=O)C(=O)N[C@@H](C)C(=O)N[C@@H](CCC(N)=O)C(=O)N[C@H](C(=O)N[C@@H](CC(C)C)C(=O)N[C@@H](C)C(=O)N[C@@H](CCC(N)=O)C(=O)N[C@H](C(N)=O)C(C)C)[C@@H](C)CC)[C@@H](C)O)[C@@H](C)CC)[C@@H](C)CC)C(C)C)C(C)C) [SEQ ID NO 100] | 0.41 nM | 8% | – |
| Ac-IVLSLD[dV]PIKLK([AEEA-AEEA-γGlu-C18 diacid])KILLEQEKQKKQREQAETN[Abu]QILAQV-NH2 (SMILES CC[C@H](NC(=O)[C@H](CC(N)=O)NC(=O)[C@@H](NC(=O)[C@H](CCC(=O)O)NC(=O)[C@H](C)NC(=O)[C@H](CCC(N)=O)NC(=O)[C@H](CCC(=O)O)NC(=O)[C@H](CCCNC(=N)N)NC(=O)[C@H](CCC(N)=O)NC(=O)[C@H](CCCCN)NC(=O)[C@H](CCCCN)NC(=O)[C@H](CCC(N)=O)NC(=O)[C@H](CCCCN)NC(=O)[C@H](CCC(=O)O)NC(=O)[C@H](CCC(N)=O)NC(=O)[C@H](CCC(=O)O)NC(=O)[C@H](CC(C)C)NC(=O)[C@H](CC(C)C)NC(=O)[C@@H](NC(=O)[C@H](CCCCN)NC(=O)[C@H](CCCCNC(=O)COCCOCCNC(=O)COCCOCCNC(=O)CC[C@H](NC(=O)CCCCCCCCCCCCCCCCC(=O)O)C(=O)O)NC(=O)[C@H](CC(C)C)NC(=O)[C@H](CCCCN)NC(=O)[C@@H](NC(=O)[C@@H]1CCCN1C(=O)[C@H](NC(=O)[C@H](CC(=O)O)NC(=O)[C@H](CC(C)C)NC(=O)[C@H](CO)NC(=O)[C@H](CC(C)C)NC(=O)[C@@H](NC(=O)[C@@H](NC(C)=O)[C@@H](C)CC)C(C)C)C(C)C)[C@@H](C)CC)[C@@H](C)CC)[C@@H](C)O)C(=O)N[C@@H](CCC(N)=O)C(=O)N[C@H](C(=O)N[C@@H](CC(C)C)C(=O)N[C@@H](C)C(=O)N[C@@H](CCC(N)=O)C(=O)N[C@H](C(N)=O)C(C)C)[C@@H](C)CC) [SEQ ID NO 104] | 0.47 nM | 5% | – |

Second part, the binder after the results:

| EC50 [nM] (cAMP) [1] | Emax (% I) (CRF1R receptor) | EC50 (CRF1R receptor) | Binder |
| --- | --- | --- | --- |
| 0.67 nM | 5% | – | Pentanoyl-VLSLD[dV]PIKLK([AEEA-AEEA-γGlu-C18 diacid])KILLEQEKQKKQREQAETNAQILAQV-NH2 (SMILES CCCCC(=O)N[C@H](C(=O)N[C@@H](CC(C)C)C(=O)N[C@@H](CO)C(=O)N[C@@H](CC(C)C)C(=O)N[C@@H](CC(=O)O)C(=O)N[C@@H](C(=O)N1CCC[C@H]1C(=O)N[C@H](C(=O)N[C@@H](CCCCN)C(=O)N[C@@H](CC(C)C)C(=O)N[C@@H](CCCCNC(=O)COCCOCCNC(=O)COCCOCCNC(=O)CC[C@H](NC(=O)CCCCCCCCCCCCCCCCC(=O)O)C(=O)O)C(=O)N[C@@H](CCCCN)C(=O)N[C@H](C(=O)N[C@@H](CC(C)C)C(=O)N[C@@H](CC(C)C)C(=O)N[C@@H](CCC(=O)O)C(=O)N[C@@H](CCC(N)=O)C(=O)N[C@@H](CCC(=O)O)C(=O)N[C@@H](CCCCN)C(=O)N[C@@H](CCC(N)=O)C(=O)N[C@@H](CCCCN)C(=O)N[C@@H](CCCCN)C(=O)N[C@@H](CCC(N)=O)C(=O)N[C@@H](CCCNC(=N)N)C(=O)N[C@@H](CCC(=O)O)C(=O)N[C@@H](CCC(N)=O)C(=O)N[C@@H](C)C(=O)N[C@@H](CCC(=O)O)C(=O)N[C@H](C(=O)N[C@@H](CC(N)=O)C(=O)N[C@@H](C)C(=O)N[C@@H](CCC(N)=O)C(=O)N[C@H](C(=O)N[C@@H](CC(C)C)C(=O)N[C@@H](C)C(=O)N[C@@H](CCC(N)=O)C(=O)N[C@H](C(N)=O)C(C)C)[C@@H](C)CC)[C@@H](C)O)[C@@H](C)CC)[C@@H](C)CC)C(C)C)C(C)C) [SEQ ID NO 122] |
| 0.35 nM | 6% | – | [NMeI]VLSLD[dV]PIKLK([AEEA-AEEA-γGlu-C18 diacid])KILLEQEKQKKQREQAETNAQILAQV-NH2 (N-terminus assumed; SMILES CC[C@H](C)[C@H](NC)C(=O)N[C@H](C(=O)N[C@@H](CC(C)C)C(=O)N[C@@H](CO)C(=O)N[C@@H](CC(C)C)C(=O)N[C@@H](CC(=O)O)C(=O)N[C@@H](C(=O)N1CCC[C@H]1C(=O)N[C@H](C(=O)N[C@@H](CCCCN)C(=O)N[C@@H](CC(C)C)C(=O)N[C@@H](CCCCNC(=O)COCCOCCNC(=O)COCCOCCNC(=O)CC[C@H](NC(=O)CCCCCCCCCCCCCCCCC(=O)O)C(=O)O)C(=O)N[C@@H](CCCCN)C(=O)N[C@H](C(=O)N[C@@H](CC(C)C)C(=O)N[C@@H](CC(C)C)C(=O)N[C@@H](CCC(=O)O)C(=O)N[C@@H](CCC(N)=O)C(=O)N[C@@H](CCC(=O)O)C(=O)N[C@@H](CCCCN)C(=O)N[C@@H](CCC(N)=O)C(=O)N[C@@H](CCCCN)C(=O)N[C@@H](CCCCN)C(=O)N[C@@H](CCC(N)=O)C(=O)N[C@@H](CCCNC(=N)N)C(=O)N[C@@H](CCC(=O)O)C(=O)N[C@@H](CCC(N)=O)C(=O)N[C@@H](C)C(=O)N[C@@H](CCC(=O)O)C(=O)N[C@H](C(=O)N[C@@H](CC(N)=O)C(=O)N[C@@H](C)C(=O)N[C@@H](CCC(N)=O)C(=O)N[C@H](C(=O)N[C@@H](CC(C)C)C(=O)N[C@@H](C)C(=O)N[C@@H](CCC(N)=O)C(=O)N[C@H](C(N)=O)C(C)C)[C@@H](C)CC)[C@@H](C)O)[C@@H](C)CC)[C@@H](C)CC)C(C)C)C(C)C) [SEQ ID NO 113] |
